Test results as given in article PMC12700559, “Structural basis for simvastatin-induced skeletal muscle weakness associated with type 1 ryanodine receptor T4709M mutation” (The Journal of Clinical Investigation, 2025).

Biological target: type 1 ryanodine receptor (RyR1), endogenous channel from mouse skeletal muscle (mouse (endogenous in mouse skeletal muscle)) (UniProt E9PZQ0)
Assay: cryo-EM structure; endogenous RyR1 purified from mouse skeletal muscle, ~15 uM protomer, in CHAPS/DOPC buffer; with 5 mM EGTA only or with 10 mM ATP, 5 mM caffeine, 30 uM free Ca2+, with or without 10 mM simvastatin lactone; C4 symmetry imposed

type 1 ryanodine receptor (RyR1), endogenous channel from mouse skeletal muscle, E9PZQ0 1-5035 (natural protein), sequence (E9PZQ0 whole entry): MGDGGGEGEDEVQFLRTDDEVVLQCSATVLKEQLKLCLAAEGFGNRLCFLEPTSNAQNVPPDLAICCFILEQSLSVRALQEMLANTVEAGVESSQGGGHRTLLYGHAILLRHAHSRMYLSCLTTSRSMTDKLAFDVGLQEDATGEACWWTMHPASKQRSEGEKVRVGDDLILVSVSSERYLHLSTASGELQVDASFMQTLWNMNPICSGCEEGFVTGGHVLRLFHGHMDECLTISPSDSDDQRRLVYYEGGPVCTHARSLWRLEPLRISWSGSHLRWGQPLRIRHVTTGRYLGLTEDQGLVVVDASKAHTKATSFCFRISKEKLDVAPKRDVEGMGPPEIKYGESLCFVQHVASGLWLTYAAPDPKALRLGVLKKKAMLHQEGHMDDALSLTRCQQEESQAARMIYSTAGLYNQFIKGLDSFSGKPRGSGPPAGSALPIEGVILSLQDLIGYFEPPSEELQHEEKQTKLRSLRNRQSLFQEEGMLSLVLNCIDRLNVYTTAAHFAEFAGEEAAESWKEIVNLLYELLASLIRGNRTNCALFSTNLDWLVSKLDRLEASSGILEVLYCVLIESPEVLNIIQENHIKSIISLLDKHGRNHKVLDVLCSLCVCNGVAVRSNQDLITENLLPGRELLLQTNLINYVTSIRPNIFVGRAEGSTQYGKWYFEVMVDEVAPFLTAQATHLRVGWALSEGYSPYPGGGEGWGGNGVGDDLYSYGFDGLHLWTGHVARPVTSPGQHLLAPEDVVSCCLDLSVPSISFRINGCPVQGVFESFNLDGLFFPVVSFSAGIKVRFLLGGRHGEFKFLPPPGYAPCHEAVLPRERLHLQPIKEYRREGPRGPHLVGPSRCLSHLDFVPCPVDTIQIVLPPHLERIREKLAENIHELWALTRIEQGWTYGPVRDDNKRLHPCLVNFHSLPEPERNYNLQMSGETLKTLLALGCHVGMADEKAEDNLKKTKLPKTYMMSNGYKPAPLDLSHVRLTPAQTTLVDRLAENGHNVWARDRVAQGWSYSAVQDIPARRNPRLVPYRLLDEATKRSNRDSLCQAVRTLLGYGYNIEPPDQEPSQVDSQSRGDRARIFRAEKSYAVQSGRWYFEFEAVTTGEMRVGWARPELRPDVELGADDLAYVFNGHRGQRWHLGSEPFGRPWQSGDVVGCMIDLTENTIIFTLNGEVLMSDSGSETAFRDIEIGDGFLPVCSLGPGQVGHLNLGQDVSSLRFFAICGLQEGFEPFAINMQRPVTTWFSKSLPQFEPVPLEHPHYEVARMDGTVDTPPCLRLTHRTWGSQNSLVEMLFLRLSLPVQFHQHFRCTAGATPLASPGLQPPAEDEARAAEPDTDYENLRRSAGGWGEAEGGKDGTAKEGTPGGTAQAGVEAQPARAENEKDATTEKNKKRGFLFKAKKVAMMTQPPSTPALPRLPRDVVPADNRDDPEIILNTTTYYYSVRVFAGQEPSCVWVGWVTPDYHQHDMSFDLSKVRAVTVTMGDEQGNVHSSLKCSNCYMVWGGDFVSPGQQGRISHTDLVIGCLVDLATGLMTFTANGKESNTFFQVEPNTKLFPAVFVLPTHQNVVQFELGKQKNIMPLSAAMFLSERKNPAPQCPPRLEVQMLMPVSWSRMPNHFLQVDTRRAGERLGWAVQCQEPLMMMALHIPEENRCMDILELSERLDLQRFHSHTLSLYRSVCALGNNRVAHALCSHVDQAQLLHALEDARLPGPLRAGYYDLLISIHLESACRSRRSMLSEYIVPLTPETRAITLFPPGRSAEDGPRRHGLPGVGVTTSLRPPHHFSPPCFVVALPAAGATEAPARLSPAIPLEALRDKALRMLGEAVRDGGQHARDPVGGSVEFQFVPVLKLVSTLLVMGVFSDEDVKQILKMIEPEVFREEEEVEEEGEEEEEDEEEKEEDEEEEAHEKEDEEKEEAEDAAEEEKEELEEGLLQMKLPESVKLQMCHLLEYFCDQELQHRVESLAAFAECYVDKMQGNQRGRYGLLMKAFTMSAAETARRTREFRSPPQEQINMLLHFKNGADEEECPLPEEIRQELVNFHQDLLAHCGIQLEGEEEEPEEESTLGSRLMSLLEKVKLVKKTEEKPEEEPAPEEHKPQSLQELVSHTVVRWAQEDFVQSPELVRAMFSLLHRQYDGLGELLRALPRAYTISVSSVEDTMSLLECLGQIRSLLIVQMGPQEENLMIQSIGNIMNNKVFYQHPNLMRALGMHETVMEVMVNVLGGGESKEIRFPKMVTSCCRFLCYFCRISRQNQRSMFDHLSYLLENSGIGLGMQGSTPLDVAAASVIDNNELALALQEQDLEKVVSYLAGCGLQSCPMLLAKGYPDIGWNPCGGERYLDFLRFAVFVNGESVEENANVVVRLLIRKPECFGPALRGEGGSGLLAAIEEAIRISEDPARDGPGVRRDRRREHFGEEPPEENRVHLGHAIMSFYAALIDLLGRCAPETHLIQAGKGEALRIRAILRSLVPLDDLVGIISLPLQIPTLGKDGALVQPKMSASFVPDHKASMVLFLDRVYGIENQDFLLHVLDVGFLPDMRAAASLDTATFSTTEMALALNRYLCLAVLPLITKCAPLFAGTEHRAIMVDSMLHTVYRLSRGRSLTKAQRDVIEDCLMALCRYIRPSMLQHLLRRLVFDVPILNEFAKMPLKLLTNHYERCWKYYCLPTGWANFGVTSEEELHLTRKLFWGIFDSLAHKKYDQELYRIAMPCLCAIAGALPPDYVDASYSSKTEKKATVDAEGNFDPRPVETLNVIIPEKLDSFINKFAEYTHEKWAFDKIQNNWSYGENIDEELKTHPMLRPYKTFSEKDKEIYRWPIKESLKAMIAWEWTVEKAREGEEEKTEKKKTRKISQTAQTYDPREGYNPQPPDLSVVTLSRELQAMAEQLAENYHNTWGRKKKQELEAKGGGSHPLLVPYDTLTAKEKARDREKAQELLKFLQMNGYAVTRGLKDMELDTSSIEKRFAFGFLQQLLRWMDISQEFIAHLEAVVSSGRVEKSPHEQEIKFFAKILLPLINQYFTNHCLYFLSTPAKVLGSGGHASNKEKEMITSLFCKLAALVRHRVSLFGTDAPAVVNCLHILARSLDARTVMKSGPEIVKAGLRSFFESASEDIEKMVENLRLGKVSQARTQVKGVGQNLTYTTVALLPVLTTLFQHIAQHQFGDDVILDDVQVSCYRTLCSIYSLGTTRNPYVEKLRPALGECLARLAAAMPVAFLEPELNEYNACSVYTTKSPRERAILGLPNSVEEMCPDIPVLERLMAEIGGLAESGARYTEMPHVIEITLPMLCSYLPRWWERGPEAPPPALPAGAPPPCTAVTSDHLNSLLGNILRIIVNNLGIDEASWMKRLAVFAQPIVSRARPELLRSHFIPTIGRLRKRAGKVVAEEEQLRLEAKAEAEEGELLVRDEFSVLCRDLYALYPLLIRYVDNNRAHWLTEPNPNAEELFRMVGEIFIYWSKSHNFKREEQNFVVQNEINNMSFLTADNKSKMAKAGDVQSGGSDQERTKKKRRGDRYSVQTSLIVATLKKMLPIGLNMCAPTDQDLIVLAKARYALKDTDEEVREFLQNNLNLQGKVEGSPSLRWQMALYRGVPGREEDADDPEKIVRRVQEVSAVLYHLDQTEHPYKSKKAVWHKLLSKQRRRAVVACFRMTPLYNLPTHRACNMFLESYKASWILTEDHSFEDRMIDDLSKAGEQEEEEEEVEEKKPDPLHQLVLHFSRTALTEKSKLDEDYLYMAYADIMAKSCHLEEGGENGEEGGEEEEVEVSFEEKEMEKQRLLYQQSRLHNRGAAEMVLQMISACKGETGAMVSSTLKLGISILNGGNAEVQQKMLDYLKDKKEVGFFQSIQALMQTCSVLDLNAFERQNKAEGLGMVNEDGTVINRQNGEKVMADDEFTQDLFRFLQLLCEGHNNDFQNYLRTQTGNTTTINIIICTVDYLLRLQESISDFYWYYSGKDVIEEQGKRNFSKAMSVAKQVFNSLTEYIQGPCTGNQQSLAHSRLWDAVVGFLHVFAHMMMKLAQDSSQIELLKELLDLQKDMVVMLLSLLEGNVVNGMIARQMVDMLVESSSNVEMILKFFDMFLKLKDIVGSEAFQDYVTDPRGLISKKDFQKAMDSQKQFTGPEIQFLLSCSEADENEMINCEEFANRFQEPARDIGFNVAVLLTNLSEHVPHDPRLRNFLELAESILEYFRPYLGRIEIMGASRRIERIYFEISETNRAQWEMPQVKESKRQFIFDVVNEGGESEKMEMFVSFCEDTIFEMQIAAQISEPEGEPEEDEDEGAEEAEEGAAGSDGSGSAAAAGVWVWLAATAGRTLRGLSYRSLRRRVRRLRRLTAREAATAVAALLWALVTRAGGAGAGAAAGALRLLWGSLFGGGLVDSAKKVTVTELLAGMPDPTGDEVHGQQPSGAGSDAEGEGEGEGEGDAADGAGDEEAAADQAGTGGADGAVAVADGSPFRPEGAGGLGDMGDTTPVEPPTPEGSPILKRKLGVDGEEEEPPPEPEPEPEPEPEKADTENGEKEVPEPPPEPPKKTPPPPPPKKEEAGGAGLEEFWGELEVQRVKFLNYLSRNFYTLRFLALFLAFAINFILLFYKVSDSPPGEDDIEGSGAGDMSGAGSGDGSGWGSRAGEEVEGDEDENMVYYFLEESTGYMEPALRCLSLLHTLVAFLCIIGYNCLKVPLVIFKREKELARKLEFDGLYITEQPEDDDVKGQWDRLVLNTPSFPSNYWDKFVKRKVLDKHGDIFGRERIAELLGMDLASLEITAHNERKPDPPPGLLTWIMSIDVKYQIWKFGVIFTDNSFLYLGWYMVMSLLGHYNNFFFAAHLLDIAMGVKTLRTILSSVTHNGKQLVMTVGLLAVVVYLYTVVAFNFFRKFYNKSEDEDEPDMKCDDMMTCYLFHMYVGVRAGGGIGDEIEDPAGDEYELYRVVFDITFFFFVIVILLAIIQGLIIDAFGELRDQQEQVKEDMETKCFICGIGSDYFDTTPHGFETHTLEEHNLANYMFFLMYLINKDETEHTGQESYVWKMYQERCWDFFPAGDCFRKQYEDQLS

“type 1 ryanodine receptor (RyR1), endogenous channel from mouse skeletal muscle, E9PZQ0 1-5035 (natural protein)” was tested, and the stoichiometry N was 4.
